This note sets out measurements from patent US12247072 (ASHER BIOTHERAPEUTICS, dated 2025).

Residue numbers refer to the chain shown, from its start. In names and notes the source's numbering stands.

First the molecules themselves.
B1: xhCD8-hIL21 v2 (other)
VH: QVHLQQSGPELVKPGASVKMSCKTSGYTFTKYTMHWVKQGHEESLEWIGHFNPNNDETKYNQKFTGKATLTVDKSSTTAYMELRSLTSDDSALYYCARDGLGLRLFADWGQGTLITVSA
VL: DIQMTQSPASLSASVGETVTITCGASENIYGALNWYQRKQGKSPQLLIFGATNLADGVSSRFSGSGSDRQYSLKISSLHPDDVATYYCQNILDTPWTFGGGTKLEIK
chain: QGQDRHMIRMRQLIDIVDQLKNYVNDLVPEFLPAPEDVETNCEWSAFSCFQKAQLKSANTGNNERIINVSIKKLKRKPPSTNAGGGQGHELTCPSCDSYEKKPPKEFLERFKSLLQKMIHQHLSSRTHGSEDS
notes: Human IgG1/kappa, knob-into-hole, L234A/L235A/G237A; also called xhCD8-Fc-hIL21 v2; exemplary IL-21 polypeptide 2
B2: xhCD8-hIL21 v6 (other)
VH: B1 VH
VL: B1 VL
chain: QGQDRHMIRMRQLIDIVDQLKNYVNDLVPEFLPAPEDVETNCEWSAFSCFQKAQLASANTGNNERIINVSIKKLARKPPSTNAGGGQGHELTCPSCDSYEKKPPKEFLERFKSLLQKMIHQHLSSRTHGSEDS
notes: Human IgG1/kappa, knob-into-hole, L234A/L235A/G237A; also called exemplary IL-21 polypeptide 6
B3: xhCD8-hIL21 v1 (other)
VH: B1 VH
VL: B1 VL
chain: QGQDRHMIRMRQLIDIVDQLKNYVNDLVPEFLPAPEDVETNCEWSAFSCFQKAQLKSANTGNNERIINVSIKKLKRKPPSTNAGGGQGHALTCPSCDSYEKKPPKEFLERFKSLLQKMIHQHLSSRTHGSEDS
notes: Human IgG1/kappa, knob-into-hole, L234A/L235A/G237A; also called exemplary IL-21 polypeptide 1
B4: xhCD8.1-hIL21 v29 (other)
VH: QVQLVQSGAEVKKPGSSVKVSCKASGGTFSSYAISWVRQAPGQGLEWMGGIIPGYATANYAQKFQGRVTITADESTSTAYMELSSLRSEDTAVYYCARDAAGIRLFADWGQGTLVTVSS
VL: DIQMTQSPSSLSASVGDRVTITCRASQSIYGALNWYQQKPGKAPKLLIYGASNLQSGVPSRFSGSGSGTDFTLTISSLQPEDFATYYCQSTYTAPWTFGGGTKVEIK
chain: QGQDRHMIRMRQLIDIVDQLKNYVNDLVPEFLPAPEDVETNCEWSAFSCFQKAQLKSANTGNNERIINVSIKKLKRKPPGGGGEGGGGGEGGCPSCDSYEKKPPKEFLERFKSLLQKMIHQHLSSRTHGSEDS
notes: Human IgG1/kappa, knob-into-hole, L234A/L235A/G237A
B5: xhCD8.1-hIL21 v27 (other)
VH: B4 VH
VL: B4 VL
chain: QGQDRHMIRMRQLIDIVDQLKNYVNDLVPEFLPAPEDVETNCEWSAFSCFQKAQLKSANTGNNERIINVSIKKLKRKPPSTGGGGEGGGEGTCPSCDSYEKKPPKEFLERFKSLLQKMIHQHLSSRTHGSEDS
notes: as for B4
B6: xhCD8.1-hIL21 v28 (other)
VH: B4 VH
VL: B4 VL
chain: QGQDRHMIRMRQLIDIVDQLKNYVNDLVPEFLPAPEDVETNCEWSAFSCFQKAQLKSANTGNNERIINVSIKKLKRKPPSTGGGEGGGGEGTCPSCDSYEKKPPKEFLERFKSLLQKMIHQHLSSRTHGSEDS
notes: as for B4
B7: xhCD8.1-hIL21 v31 (other)
VH: B4 VH
VL: B4 VL
chain: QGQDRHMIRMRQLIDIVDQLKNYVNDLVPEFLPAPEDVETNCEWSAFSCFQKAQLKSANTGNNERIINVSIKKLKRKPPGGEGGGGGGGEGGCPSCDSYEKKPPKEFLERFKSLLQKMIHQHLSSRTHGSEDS
notes: as for B4
B8: xhCD8.1-hIL21 v30 (other)
VH: B4 VH
VL: B4 VL
chain: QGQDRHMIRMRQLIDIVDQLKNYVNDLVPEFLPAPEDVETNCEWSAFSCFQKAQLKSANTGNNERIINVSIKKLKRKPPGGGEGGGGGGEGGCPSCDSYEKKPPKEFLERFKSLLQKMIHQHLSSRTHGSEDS
notes: as for B4
B9: xhCD8.1 (antibody, V domains shown)
VH: B4 VH
VL: B4 VL
notes: Anti-human CD8 antibody; human IgG1/kappa; also called xhCD8v12; xCtrl (in mouse studies)
B10: xhCD8v11 (antibody, V domains shown)
VH: EVQLVESGGGLVQPGGSLRLSCAASGFTFSSYAMSWVRQAPGKGLEWVSDITYAGGSTAYADSVKGRFTISRDNAKNSLYLQMNSLRAEDTAVYYCARSNAYAWDDALDIWGQGTLVTVSS
VL: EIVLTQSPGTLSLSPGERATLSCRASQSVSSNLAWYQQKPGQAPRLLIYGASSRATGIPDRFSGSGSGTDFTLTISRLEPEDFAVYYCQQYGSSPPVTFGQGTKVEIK
notes: Anti-human CD8 antibody; human IgG1/kappa
B11: hIL21 v31.23, non-fusion, 8His-tagged (ligand)
chain: QGQDRHMIRMRQLIDIVDQLKNYVNDLVPEFLPAPEDVETNCEWSAFSCFQKAQLKSANTGNNERIINVSIKKLKQKPPGGEGGGGGGGEGGCPSCDSYEKKPPKEFLERFKSLLQKMIHQHLSSRTHGSEDSGGASHHHHHHHH
B12: hIL21 v31.51, non-fusion, 8His-tagged (ligand)
chain: B11 chain with R9G, Q76R
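Throughout, for koff: fc fusion proteins captured on an anti-human IgG Fc Biacore surface, 10 min dissociation, double-referenced data fitted to a 1:1 Langmuir model with mass transport, triplicate runs.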
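Throughout, for kon: fc fusion proteins captured on an anti-human IgG Fc Biacore surface, 10 min dissociation, double-referenced data fitted to a 1:1 Langmuir model with mass transport, triplicate runs.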

T1 sequence (Q9HBE5 20-232 limits assumed): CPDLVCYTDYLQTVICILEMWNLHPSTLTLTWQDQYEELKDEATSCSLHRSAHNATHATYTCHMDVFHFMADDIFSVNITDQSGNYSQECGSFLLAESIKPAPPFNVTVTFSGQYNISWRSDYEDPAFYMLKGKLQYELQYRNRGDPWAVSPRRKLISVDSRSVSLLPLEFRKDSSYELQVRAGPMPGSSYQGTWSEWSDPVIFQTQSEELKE
Recombinant human IL-21R, extracellular domain fused to 8x Histidine tag (generated in house), sequence (Q9HBE5 other isoform, or with tags, fused parts or gaps limits assumed): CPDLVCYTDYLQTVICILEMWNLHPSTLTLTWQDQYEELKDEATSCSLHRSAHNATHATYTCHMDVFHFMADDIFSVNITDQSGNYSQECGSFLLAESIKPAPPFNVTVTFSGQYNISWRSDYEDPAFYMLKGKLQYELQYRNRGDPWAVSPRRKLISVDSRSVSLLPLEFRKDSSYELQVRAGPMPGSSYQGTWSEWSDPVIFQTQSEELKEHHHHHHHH

The first test has as its target T1, Human IL-21R (Biolegend, Catalog No. 773104) (human, UniProt Q9HBE5 20-232, limits assumed).
T1 construct: Bought; also called human IL-21 receptor
As to the kind of experiment: SPR, 37 C.
Consider B1, for which the “fold difference of IL-21R affinity against wild type IL-21” value (shortened to “fold difference of IL-21R affinity”) was not above 2 fold.

Turning to B2, the “fold difference of IL-21R affinity” value is approximately 3 fold.

In the case of B3, the “fold difference of IL-21R affinity” value is not above 2 fold.

In the case of B4, the “fold difference of IL-21R affinity” value is not above 2 fold.

Turning to B5, the “fold difference of IL-21R affinity” value was not above 2 fold.

In the case of B6, the “fold difference of IL-21R affinity” value was not above 2 fold.

Regarding B7, the “fold difference of IL-21R affinity” value was not above 2 fold.

Turning to B8, the “fold difference of IL-21R affinity” value was not above 2 fold.

A further test deals with T2, mouse CD8b (mouse, UniProt P10300 22-175, limits assumed).
T2 sequence (looked up): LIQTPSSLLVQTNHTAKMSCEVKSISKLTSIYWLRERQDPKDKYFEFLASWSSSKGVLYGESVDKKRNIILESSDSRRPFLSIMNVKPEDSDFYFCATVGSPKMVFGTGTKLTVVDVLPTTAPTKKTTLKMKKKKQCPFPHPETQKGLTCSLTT
Nature of the test: not described.
Consider B9, for which the binding result is reported as “no binding”.

The target of another test is T3, mouse CD8 (mouse, UniProt P01731 28-247; P10300 22-213).
T3 construct: copies: 1 + 1
T3 sequence (P01731 28-247 limits assumed, one chain of several): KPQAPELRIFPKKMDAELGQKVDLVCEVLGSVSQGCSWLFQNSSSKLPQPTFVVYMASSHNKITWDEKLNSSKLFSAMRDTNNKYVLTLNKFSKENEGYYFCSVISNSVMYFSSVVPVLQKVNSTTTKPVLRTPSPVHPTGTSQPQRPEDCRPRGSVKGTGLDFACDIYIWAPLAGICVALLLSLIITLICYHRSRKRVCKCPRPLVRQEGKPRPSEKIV
As to the kind of experiment: not described.
In the case of B10, the binding result is reported as “no binding”.

For B9, the binding result was “no binding”.

A further test addresses T1, Human IL-21R (Biolegend, Catalog No. …). As to the kind of experiment: SPR, 37 C. This is another data set of the same source.
For B1, the dissociation constant (Kd) came to 0.122 nM, the koff is 0.0011 s⁻¹ and the on-rate constant (kon) came to 8.9e+06 M⁻¹ s⁻¹.

In turn, B2 gave a Kd of 0.478 nM, a dissociation rate constant (koff) of 0.0025 s⁻¹ and a kon of 5.2e+06 M⁻¹ s⁻¹.

With B3, the Kd turned out to be 0.117 nM, the koff is 0.00097 s⁻¹ and the kon was found to be 8.3e+06 M⁻¹ s⁻¹.

In turn, B4 came in with a Kd of 0.094 nM, a koff of 0.00119 s⁻¹ and a kon of 1.27e+07 M⁻¹ s⁻¹.

Consider B5, for which the affinity, expressed as Kd, was 0.106 nM; the koff came to 0.00139 s⁻¹; the kon was 1.31e+07 M⁻¹ s⁻¹.

In the case of B6, the Kd was 0.106 nM, the koff came to 0.00139 s⁻¹ and the kon was 1.31e+07 M⁻¹ s⁻¹.

For B7, binding was put at a Kd of 0.094 nM, the koff is 0.00113 s⁻¹ and the kon came out at 1.2e+07 M⁻¹ s⁻¹.

Molecule B8 yielded a Kd of 0.093 nM, a koff of 0.00107 s⁻¹ and a kon of 1.16e+07 M⁻¹ s⁻¹.

Another test concerns the target Recombinant human IL-21R, extracellular domain fused to 8x Histidine tag (generated in house) (human, UniProt Q9HBE5 20-232). Nature of the test: SPR, 25 C.
B11: the Kd came out at 6060 nM.

Turning to B12, the Kd was found to be 7730 nM.
